In US20220298229A1 (ICHOR BIOLOGICS, published 2022):

What was measured:
[1] = target: T1, ANDV glycoprotein (GPC), glycoproteins Gn and Gc of hantavirus strain Chile-9717869 (Andes Virus (hantavirus strain …, UniProt Q9E006 19-1138)); assay: cell-based or functional assay
T1 sequence: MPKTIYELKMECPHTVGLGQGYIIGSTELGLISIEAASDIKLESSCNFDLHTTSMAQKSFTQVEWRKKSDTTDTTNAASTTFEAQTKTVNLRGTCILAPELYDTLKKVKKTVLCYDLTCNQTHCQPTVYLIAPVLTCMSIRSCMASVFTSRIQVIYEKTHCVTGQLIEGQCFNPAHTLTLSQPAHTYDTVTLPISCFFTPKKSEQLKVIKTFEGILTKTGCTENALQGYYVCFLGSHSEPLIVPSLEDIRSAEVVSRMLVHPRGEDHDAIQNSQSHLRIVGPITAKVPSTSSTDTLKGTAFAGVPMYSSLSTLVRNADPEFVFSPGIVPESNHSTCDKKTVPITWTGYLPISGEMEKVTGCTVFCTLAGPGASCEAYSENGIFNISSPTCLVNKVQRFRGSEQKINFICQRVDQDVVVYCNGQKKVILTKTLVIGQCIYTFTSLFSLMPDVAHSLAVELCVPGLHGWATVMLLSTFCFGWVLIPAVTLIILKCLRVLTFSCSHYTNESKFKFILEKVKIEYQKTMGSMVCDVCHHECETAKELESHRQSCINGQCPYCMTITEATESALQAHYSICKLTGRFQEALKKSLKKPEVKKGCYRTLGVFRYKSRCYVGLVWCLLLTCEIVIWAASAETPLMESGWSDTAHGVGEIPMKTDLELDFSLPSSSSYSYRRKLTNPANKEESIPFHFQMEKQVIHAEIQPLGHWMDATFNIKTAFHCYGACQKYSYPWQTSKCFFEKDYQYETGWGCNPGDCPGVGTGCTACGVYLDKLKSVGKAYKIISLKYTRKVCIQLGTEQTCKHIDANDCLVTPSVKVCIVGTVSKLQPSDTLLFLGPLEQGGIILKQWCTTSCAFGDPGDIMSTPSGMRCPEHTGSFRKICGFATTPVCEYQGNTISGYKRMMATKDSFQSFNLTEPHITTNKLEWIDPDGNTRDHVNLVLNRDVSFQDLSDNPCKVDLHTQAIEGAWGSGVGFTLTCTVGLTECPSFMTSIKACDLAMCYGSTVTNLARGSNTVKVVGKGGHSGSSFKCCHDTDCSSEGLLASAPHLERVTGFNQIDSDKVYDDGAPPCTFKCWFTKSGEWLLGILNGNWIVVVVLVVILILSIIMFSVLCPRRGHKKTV

[2] = target: T1, ANDV glycoprotein (GPC), glycoproteins …

B1: monoclonal antibody MIB22 (antibody, V domains shown)
VH: EVQLVQSGAELKKPGSSVKVSCKASGGTFVGYGVSWVRQVPGHGPEWMGGFSPISNTANYAERFQGRVTMIVDGSTSTAYMELRSLRSEDTAIYYCARSCDFWNAYYNNWFDPWGQGTLVTVSS
VL: AQSALTQPASVSGSPGQSITISCTGTSSDFADYNSVSWYQQHPGKAPKLLIFDVNDRPSGVSHRFSGSKSGNTASLTISGLQAEDESDYYCTSYTICNSYVFGTGTKVTVLG
notes: also called MIB22 IgG; first antibody
Which results are given for B1?
neutralization capacity relative to JL16 [1]: 31 fold; potency of ANDV neutralization relative to polyclonal IgG from P10 [1]: 67 fold; EC50 [2]: 3.38 µg/mL
